Source: paper PMC10724065, “Evolution of a plant growth-regulatory protein interaction specificity” (Nature Plants, 2023)
Positions count from the first letter of the chain named. Names may count otherwise. Values belong to the molecule of their own block, whether it stands above or below them.

How the values were obtained:
[1] = target: Marchantia polymorpha MpDELLA (yeast prey fusion); experiment: yeast 2-hybrid; conditions: parent: est. 180; read off a plot
[2] = target: A. thaliana GAI (yeast prey fusion) (UniProt Q9LQT8); experiment: yeast 2-hybrid; conditions: parent: est. 37; read off a plot
His-tagged GAI [3] = target: T1, His-tagged GAI (Arabidopsis thaliana, UniProt Q9LQT8 1-533); experiment: pull-down; 5 μg His-GAI held on Ni-NTA agarose, 5 μg MBP-SLY1/sly1 added with an equal amount of GST-GID1C and 0.1 mM GA3, 1 h at 4 °C, immunoblot with anti-His, anti-MBP and anti-GST; conditions: both partners purified
T1 construct: GAI of A. thaliana; also called His-GAI; His-tagged AtGAI; source: E. coli BL21, purified (Ni-NTA agarose)
T1 sequence (looked up): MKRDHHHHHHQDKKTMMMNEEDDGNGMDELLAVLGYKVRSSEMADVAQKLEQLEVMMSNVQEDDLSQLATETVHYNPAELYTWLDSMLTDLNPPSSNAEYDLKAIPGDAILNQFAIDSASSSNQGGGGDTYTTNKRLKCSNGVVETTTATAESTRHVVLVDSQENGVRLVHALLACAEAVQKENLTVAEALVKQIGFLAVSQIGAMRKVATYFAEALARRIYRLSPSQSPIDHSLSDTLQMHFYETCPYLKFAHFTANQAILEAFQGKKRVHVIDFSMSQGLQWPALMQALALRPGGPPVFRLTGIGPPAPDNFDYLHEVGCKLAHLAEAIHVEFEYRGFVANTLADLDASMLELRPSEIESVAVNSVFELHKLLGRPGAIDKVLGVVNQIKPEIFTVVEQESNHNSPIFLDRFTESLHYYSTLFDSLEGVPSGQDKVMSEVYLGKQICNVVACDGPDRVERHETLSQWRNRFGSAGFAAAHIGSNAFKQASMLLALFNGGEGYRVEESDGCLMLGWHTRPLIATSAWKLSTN

His-tagged GAI [4] = target: T1, His-tagged GAI; experiment: pull-down; 5 μg His-GAI/gai held on Ni-NTA agarose, 5 μg MBP-SLY1/sly1 added, 1 h at 4 °C, five washes, immunoblot with anti-His and anti-MBP; conditions: both partners purified

- response (β-galactosidase units) [1]: 130
Molecule: Marchantia polymorpha MpSLY1 (yeast bait fusion) H147K

- response (β-galactosidase units) [2]: 17
Molecule: Marchantia polymorpha MpSLY1 (yeast bait fusion) Y108F

- response (β-galactosidase units) [1]: 100
Molecule: Marchantia polymorpha MpSLY1 (yeast bait fusion) S149T

- response (β-galactosidase units) [1]: 50
Molecule: Marchantia polymorpha MpSLY1 (yeast bait fusion) R118P

- binding result (His-tagged GAI [3]): binds
B1: GST-GID1C (receptor, Arabidopsis thaliana, UniProt Q940G6 1-344, looked up)
chain: MAGSEEVNLIESKTVVPLNTWVLISNFKLAYNLLRRPDGTFNRHLAEFLDRKVPANANPVNGVFSFDVIIDRQTNLLSRVYRPADAGTSPSITDLQNPVDGEIVPVIVFFHGGSFAHSSANSAIYDTLCRRLVGLCGAVVVSVNYRRAPENRYPCAYDDGWAVLKWVNSSSWLRSKKDSKVRIFLAGDSSGGNIVHNVAVRAVESRIDVLGNILLNPMFGGTERTESEKRLDGKYFVTVRDRDWYWRAFLPEGEDREHPACSPFGPRSKSLEGLSFPKSLVVVAGLDLIQDWQLKYAEGLKKAGQEVKLLYLEQATIGFYLLPNNNHFHTVMDEIAAFVNAECQ
notes: GID1C, gibberellin receptor of A. thaliana; Used together with 0.1 mM GA3; also called GST-AtGID1C; source: E. coli BL21, purified (glutathione beads)

- binding result (His-tagged GAI [4]): binds
B2: MBP-tagged AtSLY1 (natural protein, Arabidopsis thaliana, UniProt Q9STX3 1-151, looked up)
chain: MKRSTTDSDLAGDAHNETNKKMKSTEEEEIGFSNLDENLVYEVLKHVDAKTLAMSSCVSKIWHKTAQDERLWELICTRHWTNIGCGQNQLRSVVLALGGFRRLHSLYLWPLSKPNPRARFGKDELKLTLSLLSIRYYEKMSFTKRPLPESK
notes: AtSLY1 of A. thaliana; also called MBP-SLY1; source: E. coli BL21, purified (amylose resin)

- binding result (His-tagged GAI [4]): binds
B3: MBP-tagged Atsly1^H104Y (natural protein, Arabidopsis thaliana, UniProt Q9STX3 1-151, looked up)
chain: B2 chain with H104Y
notes: AtSLY1 of A. thaliana with H104Y; cloned into pMAL-c2X; source: E. coli BL21, purified (amylose resin)

- binding result (His-tagged GAI [4]): binds
B4: MBP-sly1^gar2-1 (E138K) (natural protein, Arabidopsis thaliana, UniProt Q9STX3 1-151, looked up)
chain: B2 chain with E138K
notes: AtSLY1 of A. thaliana with E138K; cloned into pMAL-c2X; also called MBP-tagged Atsly1^gar2-1; source: E. coli BL21, purified (amylose resin)
